Reference: publication PMC3458545 (Nucleic Acids Research, 2012)

Experiments:
[1] = target: GST-TopBP1 (a.a. 1233–1522) (human, UniProt Q92547 1233-1522); experiment: SPR
[2] = target: T1, RecQL4_N54 (human (Homo sapiens), UniProt O94761 1-54); experiment: EMSA
T1 sequence: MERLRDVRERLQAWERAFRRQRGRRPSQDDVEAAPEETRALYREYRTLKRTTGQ

Chain of GST-TopBP1 (a.a. 1233–1522) (Q92547 1233-1522): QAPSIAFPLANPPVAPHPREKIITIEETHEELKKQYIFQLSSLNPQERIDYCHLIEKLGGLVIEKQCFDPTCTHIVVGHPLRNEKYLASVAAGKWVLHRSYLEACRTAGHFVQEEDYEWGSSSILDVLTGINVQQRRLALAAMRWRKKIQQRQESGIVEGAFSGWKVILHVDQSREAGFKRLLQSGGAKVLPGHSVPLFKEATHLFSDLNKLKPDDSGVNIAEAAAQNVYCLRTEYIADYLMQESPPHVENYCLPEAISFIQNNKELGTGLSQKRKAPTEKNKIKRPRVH

B1: RecQL4_N54 (domain or fragment, human)
chain: GSMERLRDVRERLQAWERAFRRQRGRRPSQDDVEAAPEETRALYREYRTLKRTTGQ
Question: Which Kd [1] does the source give for B1 here?
Answer: The Kd was ~70 µM.

B2: M2-M4 Y (mixed)
DNA 1: GCTTGCATGCCTGCAGGCCAGCCTCAATCTCATC
DNA 2: ATCCTCTCTAGAGTCGACCTGCAGGCATGCAAGC
Question: Does B2 bind [2]?
Answer: Result: binds

B3: S4-M3 Y (mixed)
DNA 1: ATCCTCTCTAGAGTCAAGGTCGGAGTTAGAGTAG
DNA 2: CTACTCTAACTCCGACCGCTTGCATGCCTGCAGG
Question: Does B3 bind [2]?
Answer: Result: binds
